Data reported in PMC10010549.
Substitutions are numbered along the chain they refer to.

How the values were obtained:
Assay in all cases: EMSA
Settings in all cases: pH 7.5, 30 min at 37 C
[1] = biological target: T1, GntR-S41A S41A (Streptococcus suis serotype 2 ZY05719) (UniProt A0A0H3MTN4)
T1 sequence: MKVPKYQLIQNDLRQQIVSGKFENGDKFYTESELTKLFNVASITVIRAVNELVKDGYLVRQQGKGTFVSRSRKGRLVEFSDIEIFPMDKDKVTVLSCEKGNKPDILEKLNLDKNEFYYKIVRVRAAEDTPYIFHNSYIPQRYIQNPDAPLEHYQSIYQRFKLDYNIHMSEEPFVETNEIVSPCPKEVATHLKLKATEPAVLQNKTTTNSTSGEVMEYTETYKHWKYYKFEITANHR

[2] = biological target: T2, GntR (Streptococcus suis serotype 2 ZY05719) (UniProt A0A0H3MTN4)
T2 sequence: T1 sequence with A41S

[3] = biological target: T3, GntR-S41E S41E (Streptococcus suis serotype 2 ZY05719) (UniProt A0A0H3MTN4)
T3 sequence: T1 sequence with A41E

## GCCATAATGTAAAATCTCACTTTCGAAAATATATTTTTTTACGAACTATATTATACAATATAAATGTTACCGATTTCAAAAAATATGCTCAGAATATCACATTTTTTTCAAAAAGTTTTTGAAATGCTATTTTCTTTAAACAATGTAAAGATATATAAAAGCAAAAACCTAGATTTCTCTAGGTTTCTCTTAACGTACTTGTTCAAAACGC (double strand) [nox promoter]
[1]
  binding: binds
[2]
  binding: binds
[3]
  binding: no binding
